Experimental data as given in paper PMC10605006.

Target: NTD (SARS-CoV-2) (UniProt P0DTC9)
Test: fluorescence anisotropy
Details: Anisotropy: 50 mM Na phosphate pH 6.5, 150 mM NaCl, 1 mM NaN3, 50 nM RNA; EMSA: 20 mM Tris pH 7.5, 150 mM NaCl, 1 mM DTT, room temp, 25 uM RNA; NTD NMR: 20 mM …

## GGCACAUGGACGUC / GACGUCCAUGUGCC [ds-14mer]
  Kd: 30 µM
